Laboratory results from article PMC4005679, “In vitro assembly and activity of an archaeal CRISPR-Cas type I-A Cascade interference complex” (Nucleic Acids Research, 2014).

B1: crRNA 5.13 (ssRNA)
RNA: AUUGAAAGAUCGCUUGUCCAACCGGGCUCCUCUAUAUGUCGUCAUUAGCUUAGA
modifications: 5'-OH from hammerhead cleavage before labeling

Experiments:
[1] = target: T1, Csa5;Cas7;Cas5a;Cas3';Cas3'';Cas8a2 (Thermoproteus tenax Kra1;Thermoproteus …, UniProt G4RJZ0;G4RJZ1;G4RJZ2;G4RJZ3;G4RJZ4;G4RJZ5 1-130;1-329;1-226;1-566;1-226;1-361, |||||); test: EMSA; yeast RNA competitor; Ca2+ during reconstitution; 0.125-5 uM Cascade; affinity similar to crRNA 5.13; 100 mM HEPES/KOH pH 7, 100 mM NaCl, 10 mM beta-mercaptoethanol, 50 ng yeast RNA, 30 min at 70 C (Cascade; 6% native TBE-PAGE); Cas7 alone without yeast RNA at 80 C, agarose gel; 2-4 nM labeled crRNA; conditions: protein: recombinant;recombinant;recombinant;recombinant;recombinant;recombinant; tags: untagged;His-SUMO tag cleaved off;;;;; label: 5'-32P (EMSA); unlabeled in SEC; single strand
[2] = target: T1, Csa5;Cas7;Cas5a;Cas3';Cas3'';Cas8a2; test: EMSA; yeast RNA competitor; Ca2+ during reconstitution; 0.125-2 uM Cascade; 100 mM HEPES/KOH pH 7, 100 mM NaCl, 10 mM beta-mercaptoethanol, 50 ng yeast RNA, 30 min at 70 C (Cascade; 6% native TBE-PAGE); Cas7 alone without yeast RNA at 80 C, agarose gel; 2-4 nM labeled crRNA; conditions: protein: recombinant;recombinant;recombinant;recombinant;recombinant;recombinant; tags: untagged;His-SUMO tag cleaved off;;;;; label: 5'-32P; single strand

Binder | binding result [1] | binding result [2]
AUUGAAAGCGUUGAUGCGGCCGCGACUGGCUGACUCAGCUAUUACGUUGA (ssRNA, 5'-OH from hammerhead cleavage before labeling) [crRNA 5.2] | binds | –
B1 | – | binds
